These results are taken from publication PMC9357037.

The test addresses TEMPOL-122-αS (N122C α-synuclein spin-labelled at position 122) (UniProt P37840). The test can be described thus: CW-EPR titration (site-directed spin labelling); apparent; TEMPOL-122-αS kept at 50 μM, poly-cation titrated at increasing molar ratios; LLPS buffer without crowder (no PEG); 25 °C; band III/band II amplitude fitted to an approximate model with n identical and independent binding sites.

In the case of poly-L-lysine of 100 residues (peptide), the Kd was 5 µM.
